Holding throughout (assay): ITC; […]; 298 K; 20 mM HEPES pH 7.5, 150 mM NaCl; […]
The target in test [1] is 5HB-H1 (SARS-CoV-2 5-helix bundle, longest construct) (SARS-CoV-2) (UniProt P0DTC2).
In test [2] the target is 5HB-H4 (SARS-CoV-2 5-helix bundle, shortest construct) (SARS-CoV-2) (UniProt P0DTC2).
In test [3] the target is 5HB-H3 (SARS-CoV-2 5-helix bundle, truncated construct) (SARS-CoV-2) (UniProt P0DTC2).

This passage reports Kd results from paper PMC9359175.

“HR2P, 36-mer peptide derived from SARS-CoV-2 S HR2 (D1168-L1203)”: the Kd turned out to be 0.009 µM in test [1], 0.446 µM in test [2] and 0.0184 µM in test [3].
